Results taken from the supplement of paper PMC9112550, “Optimization of the antimicrobial peptide Bac7 by deep mutational scanning” (BMC Biology, 2022).

System: Escherichia coli TOP10
Assay: shrunken log2 fold change of peptide-encoding DNA abundance (4.5 h post-induction vs induction); higher = less antimicrobial activity (less host growth inhibition)
Settings: time post-induction: 4.5 h; library: site-saturation at positions 5, 18, 19, 20
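Also: peptides expressed intracellularly from a pBAD plasmid library in pooled LB shake-flask culture, induced with 0.3% L-arabinose, DNA abundance read by NGS, three biological replicates, DESeq2 with apeglm shrinkage.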

| Sequence | shrunken log2 fold change |
| --- | --- |
| RRIRFRPPRLPRPRPRPFIYPRP | -0.714 |
| RRIRGRPPRLPRPRPRPNWMPRP | -0.194 |
| RRIRDRPPRLPRPRPRPQEMPRP | -0.01 |
| RRIRIRPPRLPRPRPRPPQIPRP | -0.157 |
| RRIRSRPPRLPRPRPRPIFHPRP | -0.29 |
| RRIRGRPPRLPRPRPRPFEIPRP | -0.017 |
| RRIRLRPPRLPRPRPRPLDTPRP | 0.0486 |
| RRIRWRPPRLPRPRPRPFKVPRP | 0.00438 |
| RRIRIRPPRLPRPRPRPLHRPRP | -0.307 |
| RRIRWRPPRLPRPRPRPTFSPRP | -0.0911 |
| RRIRHRPPRLPRPRPRPYSQPRP | -0.177 |
| RRIRVRPPRLPRPRPRPGHMPRP | 0.0482 |
| RRIRDRPPRLPRPRPRPIFKPRP | -0.118 |
| RRIRSRPPRLPRPRPRPVMPPRP | -0.103 |
| RRIRNRPPRLPRPRPRPYFEPRP | -0.797 |
| RRIRRRPPRLPRPRPRPQDMPRP | 0.0973 |
| RRIRTRPPRLPRPRPRPTTTPRP | 0.168 |
| RRIRKRPPRLPRPRPRPGVYPRP | 2.46 |
| RRIRNRPPRLPRPRPRPCMGPRP | -0.256 |
| RRIRHRPPRLPRPRPRPIEIPRP | -0.161 |
| RRIRMRPPRLPRPRPRPARVPRP | 1.28 |
| RRIRIRPPRLPRPRPRPSPAPRP | -0.11 |
| RRIRHRPPRLPRPRPRPAGRPRP | 0.29 |
| RRIRNRPPRLPRPRPRPMICPRP | 0.0101 |
| RRIRFRPPRLPRPRPRPMNKPRP | -0.65 |

| Sequence | shrunken log2 fold change |
| --- | --- |
| RRIRVRPPRLPRPRPRPCSVPRP | -0.0384 |
| RRIRPRPPRLPRPRPRPTGSPRP | 0.146 |
| RRIRKRPPRLPRPRPRPFDHPRP | 0.119 |
| RRIRWRPPRLPRPRPRPYLIPRP | -0.38 |
| RRIRGRPPRLPRPRPRPTKLPRP | 0.38 |
| RRIRDRPPRLPRPRPRPTELPRP | 0.103 |
| RRIRFRPPRLPRPRPRPEGGPRP | 0.586 |
| RRIRERPPRLPRPRPRPNMPPRP | -0.706 |
| RRIRERPPRLPRPRPRPGSMPRP | -0.343 |
| RRIRMRPPRLPRPRPRPCQGPRP | -0.168 |
| RRIRFRPPRLPRPRPRPVMIPRP | 0.122 |
| RRIRPRPPRLPRPRPRPPDKPRP | 0.266 |
| RRIRSRPPRLPRPRPRPCSFPRP | -0.825 |
| RRIRSRPPRLPRPRPRPGFYPRP | -0.312 |
| RRIRKRPPRLPRPRPRPEVTPRP | -0.0421 |
| RRIRSRPPRLPRPRPRPRAMPRP | 0.107 |
| RRIRTRPPRLPRPRPRPYWSPRP | 0.00748 |
| RRIRSRPPRLPRPRPRPGTKPRP | 0.108 |
| RRIRKRPPRLPRPRPRPHFKPRP | -0.0252 |
| RRIRLRPPRLPRPRPRPWILPRP | -0.0709 |
| RRIRARPPRLPRPRPRPMGVPRP | 0.103 |
| RRIRHRPPRLPRPRPRPSKVPRP | -0.146 |
| RRIRRRPPRLPRPRPRPEIPPRP | 0.163 |
| RRIRWRPPRLPRPRPRPMFCPRP | -0.0733 |
| RRIRPRPPRLPRPRPRPRHAPRP | 0.502 |

| Sequence | shrunken log2 fold change |
| --- | --- |
| RRIRFRPPRLPRPRPRPKQLPRP | -0.123 |
| RRIRVRPPRLPRPRPRPPLWPRP | 0.646 |
| RRIRRRPPRLPRPRPRPVQAPRP | 0.464 |
| RRIRMRPPRLPRPRPRPDCTPRP | 2.27 |
| RRIRYRPPRLPRPRPRPCCEPRP | -0.567 |
| RRIRDRPPRLPRPRPRPSDIPRP | -0.0124 |
| RRIRRRPPRLPRPRPRPTQQPRP | 0.707 |
| RRIRSRPPRLPRPRPRPCHYPRP | -0.0214 |
| RRIRSRPPRLPRPRPRPSECPRP | -0.211 |
| RRIRERPPRLPRPRPRPSWAPRP | -0.24 |
| RRIRMRPPRLPRPRPRPPTDPRP | 1.21 |
| RRIRPRPPRLPRPRPRPDHMPRP | -0.33 |
| RRIRARPPRLPRPRPRPLWGPRP | 0.308 |
| RRIRKRPPRLPRPRPRPQPHPRP | 0.554 |
| RRIRARPPRLPRPRPRPCKVPRP | -0.164 |
| RRIRFRPPRLPRPRPRPEDWPRP | 0.181 |
| RRIRLRPPRLPRPRPRPQWKPRP | 0.0162 |
| RRIRCRPPRLPRPRPRPIMRPRP | 0.415 |
| RRIRIRPPRLPRPRPRPSEKPRP | -0.195 |
| RRIRERPPRLPRPRPRPTIQPRP | -0.0576 |
| RRIRTRPPRLPRPRPRPYMVPRP | -1.93 |
| RRIRHRPPRLPRPRPRPHLKPRP | -0.124 |
| RRIRSRPPRLPRPRPRPRPRPRP | 0.815 |
| RRIRPRPPRLPRPRPRPELAPRP | 0.643 |
| RRIRMRPPRLPRPRPRPYARPRP | -0.00176 |

| Sequence | shrunken log2 fold change |
| --- | --- |
| RRIRMRPPRLPRPRPRPMSQPRP | 0.0528 |
| RRIRIRPPRLPRPRPRPDQWPRP | 0.0363 |
| RRIRERPPRLPRPRPRPNTYPRP | -0.667 |
| RRIRRRPPRLPRPRPRPQDKPRP | -0.289 |
| RRIRNRPPRLPRPRPRPDDPPRP | -0.0062 |
| RRIRLRPPRLPRPRPRPAALPRP | 0.182 |
| RRIRERPPRLPRPRPRPSVCPRP | -0.0246 |
| RRIRHRPPRLPRPRPRPSAMPRP | 0.06 |
| RRIRDRPPRLPRPRPRPFEMPRP | 0.182 |
| RRIRMRPPRLPRPRPRPTDPPRP | 0.00799 |
| RRIRKRPPRLPRPRPRPTCKPRP | 0.347 |
| RRIRLRPPRLPRPRPRPLILPRP | -0.429 |
| RRIRERPPRLPRPRPRPAAWPRP | 0.443 |
| RRIRCRPPRLPRPRPRPQAWPRP | -0.23 |
| RRIRVRPPRLPRPRPRPEVNPRP | -0.0796 |
| RRIRMRPPRLPRPRPRPGHRPRP | 1.35 |
| RRIRHRPPRLPRPRPRPNRRPRP | -0.00884 |
| RRIRCRPPRLPRPRPRPSMYPRP | -0.418 |
| RRIRLRPPRLPRPRPRPCAPPRP | 0.00325 |
| RRIRRRPPRLPRPRPRPPQHPRP | 1.2 |
| RRIRIRPPRLPRPRPRPSMAPRP | -0.531 |
| RRIRSRPPRLPRPRPRPIYVPRP | -0.612 |
| RRIRRRPPRLPRPRPRPIWMPRP | 0.0986 |
| RRIRMRPPRLPRPRPRPLDAPRP | 1.74 |
| RRIRIRPPRLPRPRPRPRWWPRP | 0.655 |

| Sequence | shrunken log2 fold change |
| --- | --- |
| RRIRNRPPRLPRPRPRPVGKPRP | 0.028 |
| RRIRLRPPRLPRPRPRPDQQPRP | -0.174 |
| RRIRSRPPRLPRPRPRPSGYPRP | -0.443 |
| RRIRQRPPRLPRPRPRPNPRPRP | 0.0565 |
| RRIRCRPPRLPRPRPRPGIIPRP | -0.00738 |
| RRIRARPPRLPRPRPRPFWMPRP | 1.14 |
| RRIRPRPPRLPRPRPRPRFRPRP | 0.217 |
| RRIRSRPPRLPRPRPRPFPSPRP | -0.168 |
| RRIRVRPPRLPRPRPRPKCLPRP | 0.127 |
| RRIRLRPPRLPRPRPRPHVHPRP | -0.0727 |
| RRIRERPPRLPRPRPRPKRFPRP | -0.0239 |
| RRIRKRPPRLPRPRPRPWFQPRP | -0.0934 |
| RRIRKRPPRLPRPRPRPAFGPRP | 0.564 |
| RRIRQRPPRLPRPRPRPLCIPRP | -0.28 |
| RRIRTRPPRLPRPRPRPLDQPRP | 0.365 |
| RRIRFRPPRLPRPRPRPYSMPRP | -0.417 |
| RRIRMRPPRLPRPRPRPPDDPRP | 0.0932 |
| RRIRDRPPRLPRPRPRPTWCPRP | 0.18 |
| RRIRIRPPRLPRPRPRPYYLPRP | -0.423 |
| RRIRFRPPRLPRPRPRPQTIPRP | -0.485 |
| RRIRTRPPRLPRPRPRPPGCPRP | 0.528 |
| RRIRYRPPRLPRPRPRPCTNPRP | 0.0527 |
| RRIRRRPPRLPRPRPRPTDSPRP | 0.485 |
| RRIRIRPPRLPRPRPRPVTKPRP | -0.359 |
| RRIRFRPPRLPRPRPRPSTAPRP | -0.0915 |

| Sequence | shrunken log2 fold change |
| --- | --- |
| RRIRWRPPRLPRPRPRPDNNPRP | -0.0431 |
| RRIRHRPPRLPRPRPRPGCRPRP | 0.704 |
| RRIRNRPPRLPRPRPRPGVGPRP | 0.402 |
| RRIRRRPPRLPRPRPRPDMMPRP | -0.137 |
| RRIRRRPPRLPRPRPRPQLHPRP | -0.00676 |
| RRIRFRPPRLPRPRPRPPSEPRP | 0.28 |
| RRIRTRPPRLPRPRPRPPFTPRP | 0.0073 |
| RRIRYRPPRLPRPRPRPIDMPRP | -0.315 |
| RRIRPRPPRLPRPRPRPTQSPRP | 0.436 |
| RRIRNRPPRLPRPRPRPIYDPRP | -0.4 |
| RRIRFRPPRLPRPRPRPVTFPRP | -0.213 |
| RRIRRRPPRLPRPRPRPNPHPRP | 0.534 |
| RRIRFRPPRLPRPRPRPYADPRP | -0.0222 |
| RRIRTRPPRLPRPRPRPYVIPRP | -1.03 |
| RRIRRRPPRLPRPRPRPFVPPRP | 0.127 |
| RRIRMRPPRLPRPRPRPWREPRP | 0.189 |
| RRIRLRPPRLPRPRPRPVDKPRP | -0.138 |
| RRIRFRPPRLPRPRPRPAHAPRP | 0.0606 |
| RRIRQRPPRLPRPRPRPVNHPRP | -0.212 |
| RRIRWRPPRLPRPRPRPCCTPRP | 0.0894 |
| RRIRLRPPRLPRPRPRPSCQPRP | -0.256 |
| RRIRHRPPRLPRPRPRPASPPRP | 0.158 |
| RRIRIRPPRLPRPRPRPHWRPRP | -0.101 |
| RRIRWRPPRLPRPRPRPEKWPRP | 0.0948 |
| RRIRGRPPRLPRPRPRPLRLPRP | 1.34 |
